In one data set the target is human topoisomerase IIα (human, UniProt P11388 1-1531). Nature of the data set: pull-down.
Data set [1] has as its target DNA topoisomerase II alpha (Homo sapiens, UniProt P11388 1-1531). As to the kind of experiment: EMSA. (In general: Mobility shift assays separate free from complexed probe on a gel.)

Chain of human topoisomerase IIα (P11388 whole entry): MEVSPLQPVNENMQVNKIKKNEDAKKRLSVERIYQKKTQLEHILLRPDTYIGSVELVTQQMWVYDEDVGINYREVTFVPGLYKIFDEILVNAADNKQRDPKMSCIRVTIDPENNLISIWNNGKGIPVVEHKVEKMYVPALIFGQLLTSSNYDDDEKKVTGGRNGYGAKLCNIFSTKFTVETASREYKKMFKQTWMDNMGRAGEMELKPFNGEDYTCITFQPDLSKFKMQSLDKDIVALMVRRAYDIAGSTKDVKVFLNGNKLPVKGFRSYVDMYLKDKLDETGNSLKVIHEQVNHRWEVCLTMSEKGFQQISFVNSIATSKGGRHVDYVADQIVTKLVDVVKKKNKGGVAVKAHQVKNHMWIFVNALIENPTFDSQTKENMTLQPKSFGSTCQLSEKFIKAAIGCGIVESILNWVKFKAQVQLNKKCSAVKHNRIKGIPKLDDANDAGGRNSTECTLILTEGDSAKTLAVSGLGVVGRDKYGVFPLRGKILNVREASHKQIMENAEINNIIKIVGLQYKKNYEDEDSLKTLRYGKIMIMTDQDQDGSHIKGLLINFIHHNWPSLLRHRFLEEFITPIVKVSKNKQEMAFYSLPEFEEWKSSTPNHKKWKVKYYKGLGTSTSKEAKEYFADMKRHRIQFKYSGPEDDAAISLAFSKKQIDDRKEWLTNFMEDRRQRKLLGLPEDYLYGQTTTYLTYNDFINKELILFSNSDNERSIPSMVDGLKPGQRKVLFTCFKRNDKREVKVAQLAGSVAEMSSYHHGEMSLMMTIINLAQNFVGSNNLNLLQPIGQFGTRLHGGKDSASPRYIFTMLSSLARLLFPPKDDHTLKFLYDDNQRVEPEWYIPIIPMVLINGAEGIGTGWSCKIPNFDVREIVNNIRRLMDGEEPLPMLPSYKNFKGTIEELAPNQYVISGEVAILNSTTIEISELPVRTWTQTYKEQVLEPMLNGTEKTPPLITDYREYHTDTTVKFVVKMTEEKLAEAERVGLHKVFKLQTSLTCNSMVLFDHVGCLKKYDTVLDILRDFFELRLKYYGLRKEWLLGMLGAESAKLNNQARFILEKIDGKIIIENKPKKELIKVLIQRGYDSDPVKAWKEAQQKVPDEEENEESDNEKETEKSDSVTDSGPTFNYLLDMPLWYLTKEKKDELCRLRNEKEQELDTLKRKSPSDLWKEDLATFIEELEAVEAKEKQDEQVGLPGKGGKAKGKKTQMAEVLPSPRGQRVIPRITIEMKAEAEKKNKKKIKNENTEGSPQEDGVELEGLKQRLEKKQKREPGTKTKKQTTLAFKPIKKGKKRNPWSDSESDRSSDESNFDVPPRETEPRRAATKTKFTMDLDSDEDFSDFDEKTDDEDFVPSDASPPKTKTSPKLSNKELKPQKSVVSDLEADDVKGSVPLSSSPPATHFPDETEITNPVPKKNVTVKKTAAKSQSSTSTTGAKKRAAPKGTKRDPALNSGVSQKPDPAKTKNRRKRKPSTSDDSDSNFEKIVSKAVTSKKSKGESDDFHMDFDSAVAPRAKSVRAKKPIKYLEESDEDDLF
Chain of DNA topoisomerase II alpha (P11388 whole entry): as above

B1: GST-HMGB1-ΔC (HMGB1 di-domain A+B, residues 1-180) (domain or fragment, rat, UniProt P63159 1-180, looked up)
chain: MGKGDPKKPRGKMSSYAFFVQTCREEHKKKHPDASVNFSEFSKKCSERWKTMSAKEKGKFEDMAKADKARYEREMKTYIPPKGETKKKFKDPNAPKRPPSAFFLFCSEYRPKIKGEHPGLSIGDVAKKLGEMWNNTAADDKQPYEKKAAKLKEKYEKDIAAYRAKGKPDAAKKGVVKAEK
Take B1: the binding result with human topoisomerase IIα is recorded as “binds”.

B2: GST-HMGB1 domain A (residues 1-88) (domain or fragment, rat, UniProt P63159 1-88, looked up)
chain: MGKGDPKKPRGKMSSYAFFVQTCREEHKKKHPDASVNFSEFSKKCSERWKTMSAKEKGKFEDMAKADKARYEREMKTYIPPKGETKKK
Regarding B2, in the data set with human topoisomerase IIα, the binding result is reported as “binds”.

B3: GST-HMGB1 domain B (residues 85-180) (domain or fragment, rat, UniProt P63159 85-180, looked up)
chain: TKKKFKDPNAPKRPPSAFFLFCSEYRPKIKGEHPGLSIGDVAKKLGEMWNNTAADDKQPYEKKAAKLKEKYEKDIAAYRAKGKPDAAKKGVVKAEK
With B3, in the data set with human topoisomerase IIα, the binding result is “binds”.

B4: 36-bp duplex oligo_1/oligo_2 (dsDNA)
DNA 1: ATGAAATCTAACAATGCGCTCATCGTCATCCTCGGC
DNA 2: GCCGAGGATGACGATGAGCGCATTGTTAGATTTCAT
With B4, the binding signal in data set [1] was ~10 fold increase in topo IIα binding vs no HMGB1 (up to).

For the origin of these results see PMC1976466 (Nucleic Acids Research, 2007).
